Common to all, as to experiment: purified protein
Format in all cases: biochemical, Humulus lupulus

Substrate in data set [1]: CC(C)CC(=O)C(=O)O
Conditions: anabolic direction, 2 mM glutamate, 50 μM PLP, 100 mM ammonium chloride, Tris HCl pH 8.5, 22°C.

Substrate in data set [2]: O=C(O)CCC(=O)C(=O)O
The note with it: catabolic direction, 2 mM leucine, 50 μM PLP, Tris HCl pH 8.5, 22°C.

Substrate in data set [3]: CC(C)C(=O)C(=O)O
The note with it: anabolic direction, 2 mM glutamate, 50 μM PLP, 100 mM ammonium chloride, Tris HCl pH 8.5, 22°C.

Substrate in data set [4]: CC(C)C[C@H](N)C(=O)O
Conditions: catabolic direction, 2 mM 2-oxoglutarate, 50 μM PLP, Tris HCl pH 8.5, 22°C.

Substrate in data set [5]: N[C@@H](CCC(=O)O)C(=O)O
The note with it: anabolic direction, 0.5 mM ketoisovalerate, 50 μM PLP, 100 mM ammonium chloride, Tris HCl pH 8.5, 22°C.

Substrate in data set [6]: CC(C)[C@H](N)C(=O)O
Conditions: catabolic direction, 2 mM 2-oxoglutarate, 50 μM PLP, Tris HCl pH 8.5, 22°C.

Substrate in data set [7]: CC[C@H](C)C(=O)C(=O)O
Conditions: anabolic direction, 2 mM glutamate, 50 μM PLP, 100 mM ammonium chloride, Tris HCl pH 8.5, 22°C.

Substrate in data set [8]: CC[C@H](C)[C@H](N)C(=O)O
Conditions: catabolic direction, 2 mM 2-oxoglutarate, 50 μM PLP, Tris HCl pH 8.5, 22°C.

B1: HlBCAT2 (Humulus lupulus) (protein)
chain: NATLSDTYSETVELADIDWDNLGFGFLPTDYMYNMKCAQGESFSNGELQRFGNIELSPSAGVLNYGQGLFEGLKAYRKEDGNILLFRPEENALRMRLGAERMCMPSPTVDQFVDAVKATVLANKRWIPPVGKGSLYIRPLLMGSGAVLGLAPAPEYTFLIYVSPVGNYFKEGVAPIHLIVEDNLHRATPGGTGGVKTIGNYAAVLKAQSAAKEQGYSDVLYLDCVHKKYLEEVSSCNIFVVKGNLIFTPAIKGTILPGITRKSIIDVARTLGFQVEERLVHVDELLDADEVFCTGTAVVVSPVGSITYHGERVPYNEGGVGAVSQQLYSALTRLQMGFIKDNMNWTVELS
notes: N-terminal vector His tag (pHIS8/GW), E. coli BL21(DE3) Rosetta2 pLysS, Talon purified
What is called Km is the concentration of substrate that gives half-maximal velocity. Broadly, the Vmax is the top rate of the reaction or transport when substrate is in excess. Take B1: the Km was found to be 120 ± 11.43 µM in data set [1]; 210 ± 58.86 µM in data set [2]; 200 ± 11.72 µM in data set [3]; 280 ± 69.56 µM in data set [4]; 690 ± 88.51 µM in data set [5]; 130 ± 27.74 µM in data set [6]. Besides, the Michaelis constant (Km) in data set [7] was 160 ± 11.63 µM; in data set [8], 250 ± 41.07 µM. Further, the Vmax in data set [1] is 119 µmol/min/mg; in data set [2] it was 36.9 µmol/min/mg; in data set [3], 96.4 µmol/min/mg; in data set [4], 43.4 µmol/min/mg; in data set [5], 136 µmol/min/mg; in data set [6] it was 23.3 µmol/min/mg. The figures for the maximum rate (Vmax) in data set [7] and in data set [8] were 84.7 µmol/min/mg and 88.1 µmol/min/mg, respectively.

B2: HlBCAT1 (Humulus lupulus) (protein)
chain: SSTSLAKSSLKQSCELSCKSNTEPSNMDWDKLGFKLMPTDYVYSMKCSNEGNFEQGRLELHGNIELSPAAAVLNYGQGIFEGTKAYRKEDGSLLLFRPDQNGVRMRIGAERMCMPSPSVDQFVDAVKQTAIANRRWVPPSGKGSLYIRPLLMGTGAVLGVAPAPQYTFLAYASPVGNYFKEGLAPLRLYVEDEFDRASPGGTGFVKTIGNYSRCLAALSRAKNKGFSDVLFLDSVHKKYVEELSSCNIFIVQGNQISTPAANGTILSGVTRSSIIEIARDHGFKVEERKIAVDELMEAEEVFCTGTAVGVASVGSITYHNKRVEFKTGSQSVSQKFYSTLIGIQTGVVEDKKGWIVEID
notes: as for B1
Turning to B2, the Km amounted to 35 ± 3.27 µM in data set [1]; 30 ± 5.39 µM in data set [2]; 99 ± 6.53 µM in data set [3]; 40 ± 9.20 µM in data set [4]; 720 ± 55.59 µM in data set [5]; 340 ± 90.94 µM in data set [6]. Further, the Km in data set [7] was 99 ± 10.75 µM; in data set [8], 230 ± 26.94 µM. In addition, the Vmax in data set [1] came to 4.5 µmol/min/mg; in data set [2] it was 4.5 µmol/min/mg; in data set [3], 4.23 µmol/min/mg; in data set [4] it was 4.84 µmol/min/mg; in data set [5], 5.59 µmol/min/mg; in data set [6], 12.6 µmol/min/mg. For the same protein, the Vmax in data set [7] worked out at 2.95 µmol/min/mg; in data set [8] it was 19.4 µmol/min/mg.
